Reference: the DeepSol protein solubility set

Test: soluble on expression in E. coli; label from the status in PepcDB or PDB records

Sequence | soluble on expression in E. coli
MQTKLSTWTPLNHQLSNAHVFEERRNLLGKWFEKWTDSQRKQVLQDFFSRCSAGQLKHLRQTLSSWVPEETLDFTTVLPRVISLYIFSYLDPRSLCRCAQVSWHWKNLAELDQLWMPKCLKLGWCITFTPTPFEQGVWKRQYIETVQELHISRPKVPVKEEFIVPDVKVIGSETEGSLPLTGHRDLLGLQGRSKNGNDLGKSAKGLPPWRDSDRHPTDTIRFNYLDNLHPGEHARKALLKTRQEDTIKAPSHSTYKLRKAKSLMFLSLDLSTAGKPSHNRPKWAARNLEALPADKDSIKRISQTSQWNAGIRPGPVRPPVPRLSKEGFRASQRSHRSPPTVTLFEGQP | soluble
GPGSMVHRQDGAVVHCSRETGRLSAIIAPSILASDFAQLLSECQSVLSPEGGAADWLHVDVMDGHFVPNISIGMCVVQSLRSHLQDVFLDVHCMVSDPDRWVEEMAKAGATQMTFHVEAVADPKAVARHIRAAGMLCGVALKPKTPVSSVLNLVEEQLIDMVLVMTVEPGFGGQSFMQDMMPKVEELRARFPCLNIQVDGGIGPGTIDAPARAGANVIVAGTSIFRADSRKEATESMRRVVQGYLGSTTS | soluble
KDTIALVVSTLNNPFFVSLKDGAQKEADKLGYNLVVLDSQNNPAKELANVQDLTVRGTKILLINPTRSDAVGNAVKMANQANIPVITLDRQATKGEVVSHIASDNVLGGKIAGDYIAKKAGEGAKVIELQGIAGTSAARERGEGFQQAVAAHKFNVLASQPADFDRIKGLNVMQNLLTAHPDVQAVFAQNDEMALGALRALQTAGKSDVMVVGFDGTPDGEKAVNDGKLAATIAQLPDQIGAKGVETADKVLKGEKVQAKYPVDLKLVVKQ | soluble
MSLSELGLGDPERPLDAVLHGFSISQSETIGRRTEMEDVTMIIKDFASYRRGRSSYRGAKCHESGHKEILLGIFDGHGGTECSSMVGDLFPVAFADALNSVLYAAQLNHAYDLPDSVWEPLFVGVFLRLDDTLRLKNIQSGSTAAICFILDNLVVSANCGDSRTVLTRDEAMIKSFGCDSMLYKVEGPTRSSRINEISSGSLLQLEQSQTAQLSGHAIINSARYFMNPEETSEEALVSAKRRGKRVEGLSLRLSKDHKPDDPTETRRIEASGGYVHGGRVMGTLSVCRSFGDFVYKPSISVVPFVSVYHFRTYDAWIVIACDGCWDSISDIDAAMLLSTCLSSQAGALKLRDEAYRLNSQDNISVITVRLYLEEGHHHHHH | soluble
MGSDKIHHHHHHMQIESFKSLLPKYKCIFFDAFGVLKTYNGLLPGIENTFDYLKAQGQDYYIVTNDASRSPEQLADSYHKLGLFSITADKIISSGMITKEYIDLKVDGGIVAYLGTANSANYLVSDGIKMLPVSAIDDSNIGEVNALVLLDDEGFNWFHDLNKTVNLLRKRTIPAIVANTDNTYPLTKTDVAIAIGGVATMIESILGRRFIRFGKPDSQMFMFAYDMLRQKMEISKREILMVGDTLHTDILGGNKFGLDTALVLTGNTRIDDAETKIKSTGIVPTHICESAVIEL | not soluble
MSLRVLGIETSCDETGIAIYDDEKGLLANQLYSQVKLHADYGGVVPELASRDHVRKTVPLIQAALKESGLTAKDIDAVAYTAGPGLVGALLVGATVGRSLAFAWDVPAIPVHHMEGHLLAPMLEDNPPEFPFVALLVCGGHTQLISVTGIGQYELLGESIDDAAGEAFDKTAKLLGLDYPGGPLLSKMAAQGTAGRFVFPRPMTDRPGLDFSFSGLKTFAANTIRDNGTDDQTRADIARAFEDAVVDTLMIKCKRALDQTGFKRLVMAGGVSANRTLRAKLAEMMKKRRGEVFYARPEFCTDNGAMIAYAGMVRFKAGATADLGVSVRPRWPLAELPAEGHHHHHH | soluble
MGSDKIHHHHHHMYQPGIVFLFSGHKIGYINERTFRYDTNEYLLLTVPLPFECETFATPEVPLAGMRLNVDILQLQELLMDIGEDPLFQPAVASSGINSAVLSEDILCAAERLLDVMERPLDARILGKQIVREILYYVLTGPCGGALLALVSRQTHFSLISRVLKHIESQYTENLSVDRLAAEANMSVSAFHHNFKAVTSTSPLQYLKNYRLHKARMLMIHDGMKASAAAMRVGYESPSQFSREFKRYFGLTPGEDAARIRTMQGM | not soluble
GMNQNKITAGGLEFLVRFAAPTDRLKINDLMIDTARWLKESGSTQWSDILHGFDVHNIEQRIELGEVALFETEAGALAGAMIIRKTPSDWDTDLWEDLAIDKAYYLHRIMVSRAFSGISLSKQMIYFAEKLGIEMSVPFIRLDCIESNETLNQMYVRYGFQFSGKKNGFYLYQKELSQK | soluble
MKDKYLIIDGYNMIGQSPELGKIAKDNLQEAREQLLDAIANYNAVVADEIVCVFDAYEQSGIEREYIYHGVKTVFTKEKETADSYIERYVYNLYNKHTTHITVVTSDMSEQHAIFGAGAYRVSSREMWRDLRENEITVSKSLDDFTESKPRTRISLSNDVLAEFEKIRRGNHNKDLEHHHHHH | not soluble
MYNDDELTEFMDFLVEQTKDSIYPMVAAKVFKQFPNRRLIPKDKRYQRFVLQLAPKMNDWNNYSIEARIRLMYALRGKVEDDFLARIEAHGTVQLNEKQRISKFTANDGTFFLEDDRKRLSLDATRLEFVKLMGFLIEKTKDAVEPLPNTKLIFQEFSQIEPVKKPNDTDIMYKFRSSLAPYMDKWNDYSIEDRVRLMFALGGKIKDGFLRTIETHGTLQLDDKRRITKYVSNDGNFKLEGIRRNVHKKEATGPEYTRFMDFLIKTTKEAVEPMRVWLVHNEFKRQEGRKFSKSGYAKRFHKKLAPNMSKWTNYKIEERTRMMFAMKGKVESDFLAQIEESGKVQLDENHLIVKYTSKNRKIKLGGETRLVEKKKRKSTNYHKMHQKRRKIIRSVTDETSLVAKWKRKSDSYYEMYQKRRKIGEKELSDTAEVEEVAPYDSDYGNVYVENLEAEDQDTQLNPFNAMSDLTTDGPSSNAHDLTMWPNDDPKQEPVFENIFIQNQYFPPEIEEVPNQGVYHVEPETKLSYINTNPGSSVTESGGIKLHKFLNLLELILTSLESDTLDDLLNDIEGIRVRINDEILPPELVITALQTFLLGITRKSRSAASAENKSSHECLRIFKYSLPWLRSPLLWELQQRVEEEIESHVIGGKIILVADVQQGIRNILFAVSN | not soluble
MKKVNLAVVGATGMVGRTFIKVLEERNLPIDNIYFFSSSRSAGSTVTFNNKEYVVEELTETSFDRGIDIALFSAGASVSEKFAPIAASKGCVVVDNSSCWRMNEKVPLVVPEVNPQDISCHQGIIANPNCSTIQAVVVLKPLHDKYKIKRIVYSTYQAVSGAGHNGYMDLENGLKGEPPKKFPHPIAGNCLPHIDSFLPNGYTKEEMKMVNETRKILGDYSIRITATTVRVPVFNGHSESINVEFEKQFDLEELKEVLRNAPGVVVQDDVANNVYPMPIYASGRDETFVGRIRRDESVESGVNLWVVADNIRKGAATNAVQIAEELIKMWNK | soluble
MVSTDWKSDLRQRGYRLTPQRQLVLEAVDTLEHATPDDILGEVRKTASGINISTVYRTLELLEELGLVSHAHLGHGAPTYHLADRHHHIHLVCRDCTNVIEADLSVAADFTAKLREQFGFDTDMKHFAIFGRCESCSLKGSTTDS | soluble
MDISVVVPTLNGREELTGCLDALTEQVPDAEVIVVNGPSADGTTGMVRDRDDVSLLVEIADRSVTVARNAGIDRATGDVIALVHQSLSVESGWADAVKDGLSGAAQAITGPTHQQLWAGMTTETEETRTIAGRDVTYFNPGNVAFDAEVVEALDGFDEYLNVGSARDFAHRMAAGEYGVDWSTEMCVSREFEADGGIAETDWNWKYRSLAYRLVKNYNVRPTVVRRILSHAVGDAKDALFDVVRGETTPSQWLGTGQDVFGGVGSGIVDGVRARVTDRTARRNPNGRSARTNRAVTVYDWRLEHHHHHH | not soluble
MGSDKIHHHHHHMRWNRMNPFGSYKKVVSARSTLKEVLKKAQDGGIVSTAFIYGLENNLLDGVIVADNAGEFKAVPKVATTPEEVLEAAGTKYTVCPNISVLKSAVREYGCEKIGVVGTPCQVRAVRKLMKYPVGFRHVPDKIALIIGIFCMENFPYYGLKLIVEEHCGVKMEDVVKMDIGKGKFWVYTRWGETKAIKLKETHPYEQIACHVCTDYTAELADISTGSVGSPDGWSTVFIRTAKGEEIFNKMVEDGYLEVKPIEEVKPGLGLVEKLALQKKEKNMKEIEHRKELGLPIPY | not soluble
MTAPFNALLIANRGEIAIRIARACADLGIRSVAVFAEDDAASLHVRKADVALPLAGRGVAAYLDMDRLVALALEQGCEAIHPGYGFLAENGEFARRCQRAGIHFVGPQAEVLDLFGDKAAARALAERLEVPLVAGINRAVSVEEAEAFLEGLGDGAAVMLKALAGGGGRGMRAVEEVAQLADAYRRCRAEAQAAFGRDELYVEQRVARARHIEVQVLGDGSGAVSHLWERDCSLQRRQQKLLEIAPSPDLPEATREALIDCALRMAGAVRYRGIGTFEFLVDDERPGRFYFMEANPRIQVEHTVTEEVTGVDLLHAQLRLAAGMELAALGLERPPAIGGCAVQLRINLETLAADGSARPAVGTIGAYEPPSGPGLRVDGYGYAGYRVSPSYDSLLAKLVVRGADYPAALRRAYRALCEFRLEGVASNLDLLRNLLLHPAVQANRVDTRFVESHLETLLAPIPASHPRLRAECPLAEDAAPARVEAPLGSLPLSAPSSGVLVALEVADGERVRAGQRVAILEAMKMEFEVKAPGGGIVRRLAASLGEPLEEGATLLFLEPTEDDDEQAPTEQALDLAHIRADLAEVLERQAALGDERRPQALARRRKTGQRTARENVLDLLDEGSFSEYGGFALAAQRRRRSAEELLELSPADGLVAGTGTVGAASFGVQAARCLVLAYDYTVFAGTQGVMNHKKTDRLLGLAEQWRLPLVLFAEGGGGRPGDTDFVGVAGLDCHTFVGMARLSGLVPLVGVVSGRCFAGNAALLGCCDVIIATRDATIGMAGPAMIEGGGLGRFAAEEVGPTGVQGPNGVIDVLVEDEAEAVAVARRYLGYFQGPLPDWSCADQRELRHLVPENRLRAYDIRQAIEVLADRGSVLELRRQFAPGLVTALLRIEGRAFGLIANNPGHLGGAIDAAAGDKAARFMQLCDAFDIPIVSLCDTPGFMVGPEAEKQATVRHVSRMFVSAASLTVPFFTVVLRKGYGLGAQAMAAGSFHSPLFTVAWPSGEFGAMGLEGAVRLGFAKELAAEEDPQRREALFRGMVDKAYRNGKALNMASYLEIDAVIDPAETRAWLLRGLAVAGEPAPRAGRKRPF | not soluble
MGSDKIHHHHHHMIKLFIVACGYIIYKLGRYCKENEYYMASLLMLQYHKSLSAERQQILYTNFTYYKKLSEKKKLEFEKRVQHFLTNKSFIASDGFEITEQMKVMIAATAVQILFCRKAYYLSSFDFIELFEEVPVHVEVMRKKRIIQISWNEFKKGFDSLIDGYNPGLKIMAMALDLEHKFGEKSLFSQQTYKAFQKIYKQEAEKYILSGKSKYDHYNKVDRTEYFAVAVEYFFERPEHFNVNQPAMYLALSKLLRQDPLGMYTYKEKVFE | not soluble
MSTCPIDPPALRAAFAGPLDPQHAEVLLSRYDQHASRLLDALHALYGQRADYASWLAQWLGEVGDIARQRPQALQTLDSTRHAGWFGQPHMLGYSAYADRFAGTLQGVAERVPYLQELGVRYLHLLPFLRARAGDNDGGFAVSDYGQVEPSLGSNDDLVALTSRLREAGISLCADFVLNHTADDHAWAQAARAGDARYLDYYHHFADRTVPDRYEATLGQVFPHTAPGNFTWVDDTAQWMWTTFYPYQWDLNWSNPAVFGDMALAMLRLANLGVEAFRLDSTAYLWKRIGTDCMNQSEAHTLLVALRAVTDIVAPAVVMKAQAIVPMTQLPPYFGSGVDEGHECHLAYHSTLMAAGWSALALQRGDILHNVIAHSPPLPRHCAWLSYVRCHDDIGWNVLQHEACGNAAQPPFSLRDVARFYANAVPGSYARGESFQSSGDGVHGTNGMAAALAGIQAAQEAGDAAALAVAVDRLVLLYAIALAMPGVPLIYMGDELAMVNDPGYRDDPHRQHEGRWLHRPAMDWQLAAQRHDAKSLSGTVYRRLRGLIRQRAALGALAADQALASIALNDPRVFALTRGDSFIALHNFSDQLLDVELAAIGVDGWTLLAIDDAIGGAAARGDGSIVLPPYGVRWLQRGTEHAPE | soluble
